Values quoted from earlier work as cited in article PMC6225487.

Target: TfR (Homo sapiens) (UniProt P02786)
Sequence (P02786 89-760): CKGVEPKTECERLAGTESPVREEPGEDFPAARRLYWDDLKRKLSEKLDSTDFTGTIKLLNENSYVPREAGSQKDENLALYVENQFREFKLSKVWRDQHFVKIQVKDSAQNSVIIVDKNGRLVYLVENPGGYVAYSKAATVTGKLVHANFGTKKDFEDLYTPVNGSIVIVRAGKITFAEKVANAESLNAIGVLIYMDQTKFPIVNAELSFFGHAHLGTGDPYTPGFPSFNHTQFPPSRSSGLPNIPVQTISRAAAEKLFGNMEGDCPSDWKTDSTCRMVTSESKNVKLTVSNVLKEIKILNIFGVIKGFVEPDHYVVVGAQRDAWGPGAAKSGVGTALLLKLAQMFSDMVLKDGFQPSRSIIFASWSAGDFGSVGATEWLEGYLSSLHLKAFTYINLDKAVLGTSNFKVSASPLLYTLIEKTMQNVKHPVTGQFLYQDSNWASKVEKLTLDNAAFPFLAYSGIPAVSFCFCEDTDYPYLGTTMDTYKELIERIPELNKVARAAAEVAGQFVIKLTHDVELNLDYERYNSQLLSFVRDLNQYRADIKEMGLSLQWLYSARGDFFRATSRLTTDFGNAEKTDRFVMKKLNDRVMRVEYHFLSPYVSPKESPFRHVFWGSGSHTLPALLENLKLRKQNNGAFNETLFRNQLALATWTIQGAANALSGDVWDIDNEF

T7 peptide
Kd: 0.01 µM
